Patent publication US7291458B2, “Leptin-mediated gene-induction” (Vlaams Interuniversitair Instituut Voor Biotechnologie VZW, priority 1998, dated 2007)

Key:
ob/ob mice = assay: Gene expression in leptin treated ob/ob mice (Northern blot); assay type: in vivo; conditions: 100 μg/mouse intraperitoneally, 5 hours after treatment
Experimental: Leptin deficient ob/ob mice were left untreated (−) or were treated with leptin (100 μg; +) intraperitoneally. Mice were killed five hours after treatment. Northern blot analysis of MT-II and Fnk in liver and PAP I expression in jejunum is shown. Hybridization with the mouse b-actin probe was used as a control and is shown below. Exposure times to BioMax MS films were 4 hours, 3 days, 4 hours and 8 hours for MT-II, Fnk, PAP I and b-actin respectively.
In order to assess the value of our in vitro model system for obesity, we investigated the regulation by leptin of a subset of the identified genes in vivo. Recombinant human leptin (R&D Systems) was administered intraperitoneally to leptin deficient ob/ob mice in a single dose of 100 μg leptin /mouse. Mice were killed by cervical dislocation 5 hours after treatment and total RNA was isolated from liver and jejunum. Northern blot analysis was performed using respectively MT-II, Fnk and PAP I as probe (FIG. 9).
Specific pathogen-free female C57BL/6J-Lep^ob mice, 9 weeks old at the beginning of the experiment further referred to as ob/ob were obtained from The Jackson Laboratory (Maine, USA). […] The endotoxin content of the antibody was 0.07 ng/mg protein, as assessed by a chromogenic Limulus amebocyte lysate assay (Coatest, Chromogenix, Stockholm, Sweden). […]

PC12-LR8 cells = assay: Northern blot analysis of gene induction in non-differentiated PC12-LR8 cells; assay type: cell-based, rat; conditions: cycloheximide from 30 minutes before induction for 8.5 hours; 24 hours post induction
Experimental: PC12-LR8 cells were treated with leptin (L), forskolin (F), or a combination of both (F/L) for the indicated length of time. Hybridization with the mouse b-actin probe was used as a control. NI stands for non-induced control cells. Sizes of transcripts are shown on the right. Exposure times to Biomax MS films were 5.5 days for LIP-I and LIP-II, and 1 day for the corresponding b-actin blot, all at −80° C.
FIG. 6A. Induction patterns of Reg I, HIP-I and peripherin after a 12 hours stimulation with forskolin (F), leptin (L), forskolin plus leptin (F/L), hyper-IL-6 (H) or forskolin plus hyper-IL-6 (F/H). Untreated cells were analyzed as a control (NI). Exposure times to BioMax MS films for Reg I, HIP-I and b-actin were 4 days, 5 days and 3 hours, respectively; and in a separate experiment for peripherin and b-actin, 16 hours and 2 days.
FIG. 6B Induction patterns of PAP I, PAP III, MT-II, Fnk, MRF-1, SOCS-3 and STAT-3 after stimulation with leptin (L) or hyper-IL-6 (H), compared to non-treated control cells (NI). In all cases stimulation was for 12 hours, with the exception of PAP III where stimulation was for 24 hours. b-actin hybridization patterns are shown as control. Exposure times to BioMax MS films at −80° C. were 16 hours for PAP I and 1 hour for b-actin; 4 days for PAP III and 1 hour for b-actin; 3 days for MT-II and Fnk, and2 days for b-actin; 3 days for MRF-1, 2.5 days for SOCS-3 and2 days for b-actin; and 16 hours for STAT-3 and 3 hours for b-actin.
FIG. 8A. Northern blot analysis of the immediate early response genes. PC12-LR8 cells were left untreated (NI: non induced), or were treated with forskolin (F), leptin (L) or a combination of both (F/L) for the indicated time points. Exposure times to BioMax MS films for the different transcripts were Fnk: 6 days, MT-II: 5 days, MRF-1: 6 days, SOCS-3: 14 hours, STAT-3: 14 hours, b-actin: 5 hours.
FIG. 8B. Immediate early response gene-set: early kinetics. PC12-LR8 cells were treated with leptin alone (L) or with a combination of leptin and forskolin (F/L) for the indicated length of time. Exposure time to BioMax MS films were: Fnk: 3 days, MT-II: 3 days, MRF-1: 3 days, SOCS-3: 2.5 days, STAT-3: 2.5 days, b-actin: 1 hour.
FIG. 8C. Northern blot analysis of the late target genes. PC12-LR8 cells were left untreated (NI), or were treated with forskolin (F), leptin (L) or a combination of both (F/L) for the indicated length of time. Exposure times to BioMax MS films were: Ann VIII: 6 days, PAP I: 14 hours, Squalene Epoxidase: 5 days, UGT: 5 days, b-actin: 14 hours.
PC12 cells were cultured in RPMI 1640 medium with glutamax-I (GibcoBRL) containing 10% heat-inactivated foetal calf serum (iFCS) and gentamycin (50 μg/ml). The cells were treated with medium alone or supplemented with 100 ng/ml of mouse leptin (R&D Systems), with forskolin (Sigma) at a concentration of 10 μM or with a combination both, unless otherwise indicated.
Total RNA was prepared from PC12 cells using RNeasy™ method (Qiagen). RNA (10 μg) was separated on a 1.5% agarose,6% formaldehyde gel, transferred to a nylon membrane (Zeta-Probe GT Genomic, Bio-Rad), and cross-linked using UV radiation. The filters were hybridized for one hour at 68° C. in ExpressHyb™ solution (Clontech) with [^32P]dCTP-labeled DNA-probes and washed 3 times with 2×SSC, 0.05% SDS at room temperature and twice in 0.1×SSC, 0.1% SDS at 50° C. Autoradiographs were obtained by exposing the blots to BioMax MS film (Kodak) with intensifying screens at −70° C. All Northern blots were normalized by hybridization using a b-actin probe.

[1] = tested on: human POMC (proopiomelanocortin) promoter; assay: pGL3-POMCluc reporter in PC12-LR8 cells; assay type: cell-based, rat
Experimental: (§1) FIGS. 1C and 1D. Analysis of b-NGF and forskolin co-stimulation on leptin-induced POMC luciferase (C) or rPAP luciferase activity (D). PC12-LR8 cells were transiently transfected with pGL3-hPOMCluc or pGL3-rPAPluc reporter and treated after two days with forskolin (F: 10 μM), leptin (L: 100 ng/ml), and rat b-NGF (N: 1 ng/ml) as indicated or were left untreated (NI). 24 hours after treatment, cells were lysed and assayed for luciferase activity.
(§2) Leptin responsiveness in PC12 cells was further investigated using a clone stably expressing the long isoform of the mouse leptin receptor (PC12-LR8, see below). After transfection of PC12-LR8 with a reporter construct based on the human POMC (proopiomelanocortin) promoter (pGL3-POMCluc) (FIG. 1 portion C), or a reporter construct based on the rat Pancreatitis Associated Protein I promoter (See below) (FIG. 1 portion D), leptin induced luciferase activity was measured. […]
(§3) Luciferase activity was measured in transfected cells by chemiluminescence. […] 70 μl of luciferase substrate buffer (20 mM Tricine; 1.07 mM (MgCO3)4Mg(OH)25H2O; 2.67 mM MgSO4; 0.1 mM EDTA; 33.3 mM DTT; 270 μM Coenzyme A (lithium salt); 470 μM Luciferin (Duchefa); 530 μM ATP, final pH 7.8) was added to 100 μl of cell lysate and measured for 5 seconds by TopCount.NXT Chemiluminescence Counter (Packard).

[2] = tested on: rat Pancreatitis Associated Protein I promoter; assay: pGL3-rPAPluc reporter in PC12-LR8 cells; assay type: cell-based; conditions: rPAP I reporter
Experimental: as §1, §2, §3

## Recombinant human leptin: Recombinant human leptin (R&D Systems) administered intraperitoneally to mice
ob/ob mice
  MT-II and Fnk mRNA expression in liver: clear induction
  expression of PAP I in jejunum: downregulated

## C[C@@H]1C[C@@H]([C@H](O)CC2CC(=O)NC(=O)C2)C(=O)[C@@H](C)C1 [cycloheximide, reference compound]
PC12-LR8 cells
  rPAP I and Annexin VIII mRNA expression: strongly reduced expression

B1: b-NGF: recombinant rat b-nerve growth factor (protein, UniProt P25427 122-241, looked up)
Beta-nerve growth factor: SSTHPVFHMGEFSVCDSVSVWVGDKTTATDIKGKEVTVLGEVNINNSVFKQYFFETKCRAPNPVESGCRGIDSKHWNSYCTTTHTFVKALTTDDKQAAWRFIRIDTACVCVLSRKAARRG
[1]
  combined b-NGF and forskolin effects on leptin induced luciferase activity: additive
[1]; b-NGF 1 ng/ml
  co-stimulation of leptin induced luciferase activity: mimicked
[2]; b-NGF 1 ng/ml
  co-stimulation of leptin induced luciferase activity: mimicked
[2]
  combined b-NGF and forskolin effects on leptin induced luciferase activity: additive
